Source: the supplement of paper PMC12855868

B1: library; numbered along this chain (parent)
chain: MAAAGGARLLRAASAVLGGPAGRWLHHAGSRAGSSGLLRNRGPGGSAEASRSLSVSARARSSSEDKITVHFINRDGETLTTKGKVGDSLLDVVVENNLDIDGFGACEGTLACSTCHLIFEDHIYEKLDAITDEENDMLDLAYGLTDRSRLGCQICLTKSMDNMTVRVPETVADARQSIDVGKTS

Variants of: B1
Experiment: scaled log2 fold change in cell abundance, elesclomol vs control (0 = silent mean, 1 = nonsense mean) (scaled log2 ratio); higher = higher viability under elesclomol (loss of FDX1 cuproptosis function)
Conditions: glucose 10 mM
[1] = with ABC1 FDX1 KO, elesclomol 5 nM, 14 days
[2] = with HEK293T FDX1 KO, elesclomol 40 nM, 11 days
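Note: variant abundance is its share of total variant reads in each endpoint sample, from next-generation sequencing of the integrated ORF PCR-amplified out of genomic DNA.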

Variant	scaled log2 fold change [1]	scaled log2 fold change [2]
I118Y	0.0377	-0.427
I118H	0.249	0.918
I118M	0.0783	0.694
I118G	0.403	-0.108
I118A	0.0431	-0.147
I118K	0.00843	0.202
I118R	-0.527	-0.461
I118F	-0.0055	-0.412
I118E	-0.0205	-0.0505
I118P	1.16	0.991
I118V	-0.103	-0.548
I118L	0.0425	0.108
I118Q	0.0897	0.252
I118C	-0.313	-0.183
I118N	0.286	-0.696
I118W	0.135	0.474
I118S	0.159	-0.594
I118T	-0.289	0.934
I118D	0.0488	0.0453
F119K	1.05	1.21
F119M	0.178	0.132
F119R	1.09	0.953
F119Y	0.389	0.17
F119V	-0.0745	1.48

Variant	scaled log2 fold change [1]	scaled log2 fold change [2]
F119A	0.901	0.518
F119E	1.04	1.21
F119H	0.658	-0.0181
F119I	0.0519	-0.0254
F119D	1.06	1.02
F119S	1.07	0.993
F119W	0.0722	-0.0842
F119L	0.0116	–
F119T	0.311	0.547
F119C	0.133	0.831
F119G	1.05	0.397
F119N	0.967	0.538
F119Q	0.852	0.755
F119P	0.974	0.628
I123D	0.248	0.132
I123S	0.133	0.206
I123K	0.336	0.365
I123P	0.506	-0.674
I123H	0.292	-0.438
I123R	-0.34	0.123
I123A	-0.0959	-0.0656
I123N	-0.867	-0.142
I123Q	-0.0633	-0.755
I123F	-0.346	0.312

Variant	scaled log2 fold change [1]	scaled log2 fold change [2]
I123W	-0.0593	-0.208
I123Y	-0.0557	-0.336
I123T	0.223	0.679
I123C	0.148	0.505
I123V	-0.0405	–
I123L	-0.128	-0.00641
I123G	0.293	–
I123M	0.264	0.00397
I123E	0.111	-0.217
E125T	-0.0928	0.0298
E125Q	-0.176	-0.00485
E125L	0.17	0.357
E125K	0.48	0.921
E125H	-0.583	-0.234
E125G	-0.304	-0.096
E125S	0.239	–
E125N	-0.0561	-0.574
E125P	-0.165	0.0466
E125Y	-0.278	-0.0436
E125C	-0.817	0.0813
E125A	-0.503	-0.173
E125V	0.114	-0.317
E125M	0.0258	–
E125W	-0.76	-0.135

Variant	scaled log2 fold change [1]	scaled log2 fold change [2]
E125D	0.426	0.469
E125R	0.109	-0.189
E125F	-0.241	0.00284
E120F	0.141	-0.0751
E120R	0.278	-0.473
E120H	-0.0176	-0.794
E120L	0.202	0.102
E120T	0.0538	-0.0827
E120N	0.109	0.835
E120D	0.203	0.978
E120Q	-0.192	0.816
E120Y	0.267	-0.449
E120W	0.298	-0.149
E120V	0.256	-0.849
E120K	0.0347	0.542
E120P	0.108	0.193
E120S	0.0771	-1.62
E120A	0.194	-0.0676
E120C	0.227	-0.059
E120I	-0.276	0.524
E120G	0.367	-0.0815
E120M	-0.223	0.0763
H122E	0.137	–
H122G	-1.06	–

Variant	scaled log2 fold change [1]	scaled log2 fold change [2]
H122S	-0.554	–
H122W	0.634	-0.608
H122Q	-0.0669	0.352
H122I	0.215	1.13
H122M	0.0412	0.368
H122D	-0.343	–
H122F	-0.949	–
H122N	0.564	0.129
H122K	-0.152	-0.221
H122V	0.297	-0.437
H122Y	-0.259	–
H122T	0.191	0.139
H122C	-0.812	–
H122L	-0.634	–
H122P	-0.0781	-0.564
H122R	-0.313	0.00681
Y124S	0.413	0.62
Y124N	0.36	1.01
Y124T	0.399	-0.214
Y124L	0.252	0.75
Y124G	-0.0904	0.69
Y124A	-0.0589	–
Y124H	0.148	1.04
Y124W	-0.403	-0.22
